Test: label from the status in PepcDB records
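Note: failed if final PepcDB status was selected cloned or expressed and not failed if soluble or beyond.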

Sequence	protein production
MCGTRSSAQTSKTSLCALLLSAAMSLVLAAPASAAADCIAGSKAAPAELITSCSAIIDQAANSSSDRAAALLVRADANARTSGGLTQALRDIDRAIALDGKNAKAWRLRGDLLREAGGDLNRAAADLSKAIELDPQDAESYELRGVVYTSQRRLDRALADYDQAIKLKPGDAQAWSDRGVTYYLGGDNEKAIRDLSEALRLDPNRPRTYTNRGAAYKKLGQLDKSVADAAEAIRLDPKVPEYYDNRGLSLAAMGDYDKAIADYDQALRLAPKPNFFTNRGDSYQFKGEFGAALSDYESALKLDPNFAQTYNNRAVLYKKMGERRKALADYETALKLDPGNDNAANGRRTMIAEIAKFGDEPRRPLAANSGNGPSFDCATAKREVEKVICADPELGVLDRQIAETYERVLKSANRRSAGDLRRTQRDFLATRNSSFGRPGYDLRKVMQERLQRLNAMEG	failed
MSSAQFDHVTVIKKSNVYFGGLCISHTVQFEDGTKKTLGVILPTEQPLTFETHVPERMEIISGECRVKIADSTESELFRAGQSFYVPGNSLFKIETDEVLDYVCHLEG	not failed
MVKDTLFSTPIAKLGDFIFDENVAEVFPDMIQRSVPGYSNIITAIGMLAERFVTADSNVYDLGCSRGAATLSARRNINQPNVKIIGIDNSQPMVERCRQHIAAYHSEIPVEILCNDIRHVEIKNASMVILNFTLQFLPPEDRIALLTKIYEGLNPNGVLVLSEKFRFEDTKINHLLIDLHHQFKRANGYSELEVSQKRTALENVMRTDSIETHKVRLKNVGFSQVELWFQCFNFGSMIAVK	not failed
MRFRNAILFVALAIAWGSAFTAIKAGLEYFPPILFAAFRYDLAGLLMLGYAVYATDQWVPKSRTDWIVVGIGGSLLIAAYHIFLFVGEQGTTSAAAAIVVSLSPILTTGFARAFLPDERLTTLGIVGLLVGFLGVGVLSNPDPGNLLNPRTVSLFLVFLAAASFALGSVLTRRFDDDLEIETMEAWSMLLGAVLMHGISFGVSESVADVQWTTEAVLALLYLVVVASALGFLIYFDLLERLGPIEINLVSYAAPVVAAATGLLFLSETPTVYTGVGFTCILVGFGLLKRDALRNEVARFSGTPNRGE	failed
SNQEKLQRTMIHFNNPEVQAFLAVNTFTITGHGETKQLTEMLRSVLNQLAAVSLTSLRRLAEALPKQSVDGKAPLATGEDDDDDEVPGIMENFDEASKNEAN	failed
MQPFLFSDSSACLHVSPAMKISVIIPVYNDPSGIDATLRSVMEQDHSDYEVIPVDNNSTDRTPAVIREWAHQYPNRIRPASEHDTQSSYAARNAGIEAAQGEILVFIDADMAAPSYWLTDVHEAFSASEADYLGYEVDVYVPEDEAGFWGWYDTVMGLPSRYHYDEKQFVPTSCLAVRRAVFEKVGRFDETAVSGGDKEFGERVHRHPDLTTAFRDDIVVCHPARTTFEAHRAKALRVGRGLARLCDPSTASGDTTSVLIELLLHAVPPDPRRVAEQAHDVPAHQFLRLYIADWILRYLRLYGALTYCRKEAPE	failed
MAVEEFNQNLNEIMKFKECNITVDTCVVIDGRITELISDGTIEKCTIIVPEAVISELEAQANKGREIGYFGIEELKKLVKVAKENEMVLEYYGERPSTGEVSLAKAGEIDAMIRKVAKDTNSILFTSDRIQYNLAIAQNINAHFLKVHEEKVDLKLV	failed
MPKVSVVTGFYNRCEHLERTIESILNQTYSDFELIVFDDASTDGTASRLLELKEKYDDPRFRFIIHEENKGFVKGLSEAISGAKGQYIAVQGSGDVSLPRRLELQVEFLDANPSVGAVGGAIYNIQEDTGTRNPQRFEKPIATFDDLLTSNPFTHGEVMYRLDLYKSIGGYRSGFTFAQDRDLWLRMAKKADLGIIPDFLYHRYTLLDGVSFVPDKTIRQRCFSEAAVRLALMPEEEGALAYSRLEAEGPTAVVPIADRAVQKFVPKAAIRLCLYGAPETGLHMARDYIQNPLRRTIVVVLISIYSSRLIKPLQDILYKSIFKGVSISKPIKSSLVKFTRRIQGK	failed
MIDTMQYGKNDSLRDEIKAYWSGRAATFDLSPGHEIFSEDERAAWHALILKHLGRGEGRKALDLASGTGVISHLMDDLGFQVTGMDWSETMLGLAREKAKSRGRNIRFFVGDAENTMEPDESADVIITRHLVWTLVDPQASFAEWFRVLKPGGKLLIVDGDFVNTGWRERLVKKLAVSLESIGLVKADQPHKPADPENTFNSILSRVYFSKGARAGDVATMLGATGFEPVSVDQELRAIHRAQAKNFSLLKGILRGLQHRYAVCAVKPDTSVKG	failed
MWKAVMNAWNGTESQSKNVSNIQSYSFEDMKRIVGKHDPNVVLVDVREPSEYSIVHIPASINVPYRSHPDAFALDPLEFEKQIGIPKPDSAKELIFYCASGKRGGEAQKVASSHGYSNTSLYPGSMNDWVSHGGDKLDL	not failed
MYCDHFGFSEHPFALTPNPAFLFLSSRHQEAFAHLLYGIDTRAGFIELSGEVGTGKTTVIRTFLNQLDPETHRTALVFNPTVSPLGLLQGIIREFGLPGTSTEKSELLETLNRFLLDENRAGHTVVLVIDEAQNLSPEVLEQIRLISNLETERDKLIQIVLVGQPELRHLLARQELRQLDQRITVRYHLEPMGLDDTKNYIRHRIRIAAGGREPVIFSAGAVKKIFGFSGGLPRLINAACDRALLLAYTTEAREVSPAMAAAAIADVATEARPPSPSRRFAVAAALILVAALGAGTFAVTRKGGESLPSASPPPTEPAASGEQPLKRTAALAGLAAVPEKDNLSAAVNTILRSWQAPPVASSPSPADLRSLARERGLTVTELSGTLNDLARLDTPALLHITLPQGGKRLVALTSLDKGHIGIDPPIAGHSTLTGGELSTLWSGRASVIWKNFHGIPSRLKPGGRSKAVGQLQELLKGAGYYAGRISGTYDTVTQEAIRSFQTAEGLDADGRTGEKTLLLLYRRAGGFFPPGLTQGKTAARTEAGDRSRGKVAQTRSNGEQSRLEHHHHHH	failed
MLEGESAPEPVIEISKLELTDYVKCNLPPEVIKYYESELELLTQEIKSEKKNPAFAYCRRGAIYRKLGKLQSAMNDLQETIFVEPLFLNAYWHRHFIYLFQDKINDALDDLNFITKYNKNHAEAYLSKAEIFREKNDITLAILNYSQAIKCRPKDASLYFKRGEMYEKTNKVLAIDDFSKGLDQAVTHVTESAQIFPPLLGQNDCIYYDPKRSDALWKRGMFYFENENWTGAVYDFTSLLKLEPHNSQARTNRGRAYFKRNLFKQATEDFSAAIHSDPNNWLALYYRACLFRKCSPQRALQDYSVSVSVSVLCSPGFKLFIYKVNGMSEFTTSFHEFVNCDCHVLINDGYDNLNCFLHRGILYTELKFWMLAVCDFETVVTLERIKAIISSRGQYLLMMKSYDLAKLTIFQVAEMNKGVIELSPIQEALIYSFCENHDKAIHVLEGVIANKPDISTYALLAKAQMKAKRIKESVRLFKKALELYTFSDKGPAATSVSADCLYNLGLCYMEEGNFQMNYKLAITDLTTAVGMDKNSYTAFYNRALCYTKIKKHEMALRDYGIVLLLQAGETIALNTLVNRGLIYTELEQYGFALEDFKEASMISETSVKLCQATAMCHHRIKEFQGAVEFFTRAIKINPRYLDAYIGRGNSYMEYEQNKAMIQAQKDFLRALHLDPSNLKARISLGYNLQAQGKFQKAWQHFTIGIEANPKNYLAYEGRAVVCLQMSNYFAAMQDINCAIKINSTAEFLTNRGVIHEFMGQQQNAMADYQAAISLDPNYSLAYFNAGNIYLHHRQFSQATDYFSTALKLNPENECALMNRAVTNSVLKKYEEAEKDFSHAMELCPHWAALYFNRASFYVYLKKYELAEEDLDRALSLKPDDAIMYNLRAQVRGKIGLIEEAMCDYNQALDLEEYSKAM	failed
MKIRNDGPALAGWNVAWEMPDGQEITNSWNGRFVQTGAHVDVGNLDWNKDIPAGSNIEFGFNGSHTGRNRTPASLSVNGVKCTMAVAAPPPSPRPAACEATYQISDQWNTGFTANVRIRNDGDPLAGWKVVWDMPDGQRVTNSWNGRFTQSGSHVEVGHLDWNRDIATGSNIEFGFNGSHAGANRAPSSLSLNGVACALVTVAPSPTPAPTATPSPIPTPTPSPAPTASPSPAPTPTPAPTSSPSPTPAPTGPCQADYQVTAQWNDGFTANVKVRNNGTALDGWTVAWTMPSGQTVTGMWNGQYVQTGPQVAVTPADWNRQIASGASIEFGFNGSHSGSNAVPGVLTLNGAACATTTGGGTPTPTPVPVAPGAPAGLSATVADNAVVNLVWTAADAFAQGFRIERRTAAGVDWALVAETAAGVPSFGDGTVAMGNDYEYRVYAFNAVGNSPPATASASLPTLLKYGESQYQKQGCASCHGKDGKGGFTNKPLVHFTADQLATLTEIIRVRMPPSKPANCVSNCAAGTAKYIIEVLAAAASGGGGGGGNACAGSPPPGGRALRLLTRQEYQNTVNDLLGLSENLVHLLPEENRVDGFDNNVATNLVTSIRLEAFLTQAEALAAKAVQQNWNALLPCTQQDAACARRFVEAFGKRAYRRPLTPEEADAYAALFGQGSFREGVEATITHMLVSPNFLYRSELGEVQADGTYKLTPYETASALSYLFLGSLPDGELVSAADQNLLDTPDQRIAHASRLLSLPRSRNRVGHFVGQWLLGTSPYTLPEKDQAVYPRYDAAVRSAMSEELIGFFDHVAFESTQSFPELFTANYVVVDDTLADYYGLGRPGGSGFAPVTVSDGTRTGILTLGAVLSRYANSNESHPFKRGGFLYKRLLCRDLPLPANAGFIQAPQPDPNATTRQRFEFHSKSNTSCYGCHQYLDGPGFGFENYDGAGIFRASENGQAIDASGVLRGLETFTPTEELSFTDLPDLSRKIAASPTAAQCAARQYYRFATGRREASSDSCALDSFLQTYSANGHNLQTMLLGIVNAPGFTVRRADQ	failed
MSQIEAVFFDCDGTLVDSEVICSRAYVTMFRQFDITLELTEVFRRFKGVKLYEIIDTISKEHGVALAKAELEPVYRAEVARLFDTELEAIAGANTLLESIKTPMCVVSNGPVSKMQHSLGKLGMLHHFPDLLFSGYDIQRWKPDPALMLHAANAMKVNVEKCILVDDSSAGAQSGIAAGMEVFYFCADPHNKPIDHPNVTTFTDLAQLPGLWKAR	failed
MQLFHKTVNRRGTHSIKWDTYKNEELIHAWIADMDFEVPQPIQTALKKRIEHPIFGYTLPPENIGDIICNWTKKQYNWDIQKEWIVFSAGIVPALSTSIQAFTKENESVLVQPPIYPPFFEMVTTNNRQLCVSPLQKQNDTYAIDFEHLEKQFQQGVKLMLLCSPHNPIGRVWKKEELTKLGSLCTKYNVIVVADEIHSDIIYADHTHTPFASLSEELAARTITCMAPSKTFNIAGLQASIIIIPNEKLRQAFTSIQYRQGFHGLNIFAYTAMQSAYTECNDWLNEIRFYIEDNAKFACEYIKDHIPTLSVMKPEGSFLLWIDCSALNLSQDERTKLLEEKGKIIVEPGEKYGLGGEEHIGINIGCPRSVLEEILNRLRHTFS	not failed
MLEKVFQEITNKRKFFASSSTGEQFENQFRNELKKHFSEINGDLTEELSHIEEKPNKEIKTTFNQLKKQVLEKNHPHTLKNPFSNLTSHFLYQPFGSQNYPDFLVFIFDYVVGIEIKFSKNDKGEKNLQTSRPMWNSNLPKPNAIYVYGVANANITFFKGSDILSYETREVLLKYFDILDKDERSLKNALKDLENPFGFAPYIRKAYEHKRNFLTTTRLKASFRPTTF	failed
MRLTARSEPSSAPFPSGTGRQIGADCNGPSACQALQFTPFCPSRDNEMSDWSLDQARKTYSIPHWADGYFDVNDAGHVVVRPTADGPAVSLPEVVDAARAAGAKLPLLVRFPDILGQRLGKLQAAFAQAQADWDYAGGYTAVYPIKVNQHRGVAGTLASHHGEGFGLEAGSKPELMAVLALSRPGGLIVCNGYKDREYIRLALIGRKLGLQTFIVIEKPSELNLVLEEARALDVKPGLGVRMRLASLGAGKWQNSGGDKAKFGLSPRQVLDLWKSLRDTEYADSLNLLHFHMGSQISNVRDIANGMREATRYFVELSRLGAKISHVDVGGGLGIDYEGTRSRSYCSINYGLHSYASNIVQPLASACEEHGLPPPRIVTECGRAMTAHHAVLIANVSEVEQAPEGRVPDAHDDEPAAIRHLREIHDELDVRPAVELFQEAQHFHAEGLSAYALGQIDLTHRARIDDLFYAIAHGVRARLSFDEKSHRPVLDELNERLVDKYFVNFSVFESIPDVWAIDQVFPIVPIERLNEAPQRRGIIADMTCDSDGMVKTYVENESLDSSLPLHGLNPGESYRIGFFLVGAYQEILGDIHNLFGDTDAVEVAVDGTGYRIAQQRRGDTTDVMLDYVGYQLDTLRATYAERIAAAQLPPERAQELHDALEAGLTGYTYLSDEPLG	failed

Source: a protein production outcome set (Wang et al. 2014)
